From PMC2999833

Key:
[1] = molecular target: Dok1 pY362 peptide (human); experiment: SPR
[2] = molecular target: Dok2 pY345 peptide (human); experiment: SPR

Kd [1]: 0.6 µM
Kd [2]: 3.5 µM
Substance: Full-length recombinant His tagged human Nck1 (from UniProt P16333 1-377) (natural protein)
